Experiment [1] has as its target Pichia pastoris Pex5 full length (tag removed) (Pichia pastoris) (UniProt P33292). Nature of the experiment: ITC. Background: ITC needs no label: the signal is the heat of the interaction.
Experiment [2] deals with Pichia pastoris Pex5 CTD (residues 259-576, tag removed) (Pichia pastoris) (UniProt P33292). As to the kind of experiment: SEC-SAXS. (In general: Size exclusion chromatography separates by hydrodynamic size, large species first.)
The target in experiment [3] is Pichia pastoris Pex5 NTD (residues 1-276, tag removed) (Pichia pastoris) (UniProt P33292). Nature of the experiment: SEC-SAXS.
The target of experiment [4] is Pichia pastoris Pex5 full length (tag removed) (Pichia pastoris) (UniProt P33292). Nature of the experiment: SEC-SAXS.
Experiment [5] has as its target 6xHis-GST-tagged Pichia pastoris Pex5 CTD (residues 259-576) (Pichia pastoris) (UniProt P33292). Nature of the experiment: BLI. (In BLI a coated tip is dipped into the sample, and binding shifts an interference pattern.)
The target in experiment [6] is 6xHis-GST-tagged Pichia pastoris Pex5 NTD (residues 1-276) (Pichia pastoris) (UniProt P33292). As to the kind of experiment: BLI.
The target of experiment [7] is 6xHis-GST-tagged Pichia pastoris Pex5 full length (Pichia pastoris) (UniProt P33292). Nature of the experiment: BLI.
Experiment [8] concerns the target Pex5 NTD variants (the Pex5 single E57R mutant and the double mutants R45E/R48E and M61A/F64A). As to the kind of experiment: BLI.

pKd: −log10 of the molar value. Where “and” joins values, the source holds several entries; their conditions need not be identical. Equal entries are not always repeated.

Regarding “Pichia pastoris Pex8 (residues 33-713), N-terminally truncated (domain or fragment)”, the stoichiometry N in experiment [1], in experiment [2], in experiment [3] and in experiment [4] was 1 each time. Moreover, the pKd in experiment [5] was 5.36; in experiment [6], 6.17; in experiment [7] it was 7.11. The fold increase in KD against Pex5 NTD WT in experiment [8] is 6 fold and 8 fold.
As to “Pichia pastoris Pex8 (ΔPTS1) (domain or fragment)”, the pKd in experiment [7] was 6.32.

As a reminder, the stoichiometry N is a count of units in the complex or per binding partner. As a reminder, the pKd is the negative decadic logarithm of the Kd, by convention in mol/L. A lower pKd goes with a high Kd.

The values are drawn from publication doi:10.1101/2025.08.30.673231.
